Key:
[1] = molecular target: prothrombin (Homo sapiens, UniProt P00734 P00734:44-622); test: filter; 50 nM prothrombin; conditions: tags: Athens Research
Description: Dot blot binding assays were performed throughout the selections to monitor the protein binding affinity of the pools. Trace ³²P-labeled RNA was combined with a dilution series of human Thrombin (1 nM-1000 nM) and incubated at room temperature for 30 minutes in 1×DPBS (w/ Ca²⁺ and Mg²⁺) (Gibco, Catalog #14040, Invitrogen, Carlsbad, Calif.) plus 0.1 mg/ml BSA in a final volume of 30 μl. The binding reactions were analyzed by nitrocellulose filtration using a Minifold I dot-blot, 96-well vacuum filtration manifold (Schleicher & Schuell, Keene, N.H.). A three-layer filtration medium was used, consisting (from top to bottom) of Protran nitrocellulose (Schleicher & Schuell, Keene, N.H.), Hybond-P nylon (Amersham Biosciences, Piscataway, N.J.) and GB002 gel blot paper (Schleicher & Schuell, Keene, N.H.). RNA that is bound to protein is captured on the nitrocellulose filter, whereas the non-protein bound RNA is captured on the nylon filter. The gel blot paper was included simply as a supporting medium for the other filters. Following filtration, the filter layers were separated, dried and exposed on a phosphor screen (Amersham Biosciences, Piscataway, N.J.) and quantified using a Storm 860 Phosphorimager® blot imaging system (Amersham Biosciences, Piscataway, N.J.).
Based on pool binding monitored throughout the selections as described above, Round 9 Pools from both Selection #2 and #3 were also cloned using a TOPO TA Cloning kit (Invitrogen, Carlsbad, Calif.) according to manufacturer's instructions, and sequenced. Of the 136 sequences obtained from Round 9 of both selections, 130 unique sequences were selected for assaying in a single-point dot blot screen against thrombin and prothrombin to test for selective binding to thrombin. Clones were ordered from IDT (Coralville, Iowa) at 25 μmole synthesis scale. Clone transcripts were 5′ end labeled with γ̅³²P ATP and spin purified with Centrisep columns (Princeton Separations, Adelphia, N.J.) to remove excess label. Trace amounts of labeled clone were incubated with +/−10 nM Thrombin (or +/−50 nM prothrombin) and 0.1 mg/ml BSA in a total volume of 30 μl 1×DPBS (w/ Ca²⁺ and Mg²⁺) (Gibco, Catalog #14040, Invitrogen, Carlsbad, Calif.) for 30 minutes. Post incubation, the binding reaction applied the dot-blot binding assay apparatus previously described.

[2] = molecular target: T1, thrombin (alpha-thrombin) (Homo sapiens, UniProt P00734;P00734 P00734:315-363,P00734:364-622); test: filter; 10 nM thrombin
[3] = molecular target: T1, thrombin (alpha-thrombin); test: filter

| Binder | binding signal [1] [% bound] | binding signal [2] [% bound] | Kd [3] [pM] |
| --- | --- | --- | --- |
| TCCCGAGATCTTTATAGGGTATTGTTGGTTGGGGTGGCTGAGGATCGATC (ssDNA) [AMX(399)_E12] | 25.1 | 20.3 |  |
| TCCTTGTCGAGCCTTGGGGTAGTGTTGGTTTGGGTGGCTGAGGATCGATC (ssDNA) [AMX(399)_F3] | 8.7 | 9.8 |  |
| TCCCTATGGATTCGGGGTACGTTAGTTCTGGGTGGCTGAGGATCGATC (ssDNA) [AMX(399)_F11] | 35.7 | 35.1 |  |
| ACTGCCTAGGTTGGGTAGGGTGGTGGCAGT (ssDNA, PS linkage between nt 22 and 23) [ARC2665] |  |  | 121 |
| TCCCTTGATCCTGGTACATATATTTTCTGGGTGGCTGAGGATCGATC (ssDNA) [AMX(399)_F2] | 7.92 | 7.37 |  |
| TCCCGAGAGATTCAAAAGGGACTGGGCGGTTGGGTGGCTGAGGATCGATC (ssDNA) [AMX(399)_H4] |  | 7.7 |  |
| TCCCATCGAACCTCGAGGGTATTGTTGGCTTGGGTGGCTGAGGATCGATC (ssDNA) [AMX(399)_G3] | 22.6 | 20.8 |  |
| ACTGCCTAGGTTGGGTAGGGTGGTGGCAGT (ssDNA, PS linkage between nt 7 and 8) [ARC2650] |  |  | 230 |
| ACTGCCTAGGTTGGGTAGGGTGGTGGCAGT (ssDNA, PS linkage between nt 8 and 9) [ARC2651] |  |  | 111 |
| TCCCATCGTCTGTGGTATAGGAACTTCTGGGTGGCTGAGGATCGATC (ssDNA) [AMX(399)_G2] | 7.28 | 18.8 |  |
| ACTGCCTAGGTTGGGTAGGGTGGTGGCAGT (ssDNA, PS linkage between nt 6 and 7) [ARC2649] |  |  | 264 |
| TCCCATCGATCAGTGGTGGCTTGGCTGGTTTGGGTGGCTGAGGATCGATC (ssDNA) [AMX(399)_G6] | 38.6 | 39.7 |  |
| ACTGCCTAGGTTGGGTAGGGTGGTGGCAGT (ssDNA, PS linkage between nt 27 and 28) [ARC2670] |  |  | 160 |
| TCCCGATCGGTCCCAAGGGTATTGTTGGTTTGGGTGGCTGAGGATCGATC (ssDNA) [AMX(399)_F7] | 34.2 | 29.6 |  |
| ACTGCCTAGGTTGGGTAGGGTGGTGGCAGT (ssDNA, PS linkage between nt 21 and 22) [ARC2664] |  |  | 211 |
| TCCCGATCGCTGTCCTAGGATGGGTAGGGTGGTGGCTGAGGATCGATC (ssDNA) [AMX(399)_G10] |  | 38.4 |  |
| ACTGCCTAGGTTGGGTAGGGTGGTGGCAGT (ssDNA, PS linkage between nt 26 and 27) [ARC2669] |  |  | 129 |
| TCCCATGTGTTAGATCCGTGTGGTTGGACTGGGTGGCTGAGGATCGATC (ssDNA) [AMX(398)_C3] |  | 10.8 |  |
| TCCCGTGAGAGCTGGGGTGTTTATATGGGTCGGGTGGCTGAGGATCGATC (ssDNA) [AMX(399)_G9] | 22.5 | 21.3 |  |
| ACTGCCTAGGTTGGGTAGGGTGGTGGCAGT (ssDNA, PS linkage between nt 28 and 29) [ARC2671] |  |  | 158 |

| Binder | binding signal [1] [% bound] | binding signal [2] [% bound] | Kd [3] [pM] |
| --- | --- | --- | --- |
| ACTGCCTAGGTTGGGTAGGGTGGTGGCAGT (ssDNA, PS linkage between nt 25 and 26) [ARC2668] |  |  | 159 |
| TCCCAAGATCGATGCTGGTAGTGTTTTCTGGGTGGCTGAGGATCGATC (ssDNA) [AMX(399)_F6] | 11.9 | 10 |  |
| TCCCGCTCGATTTCGAAGAATGGTTGGTTTGGGTGGCTGAGGATCGATC (ssDNA) [AMX(398)_B11] |  | 9.76 |  |
| TCCCGTCGGTCCGTTCGGTATTTTTTTCTGGGTGGCTGAGGATCGATC (ssDNA) [AMX(399)_F10] | 22.1 | 21.3 |  |
| ACTGCCTAGGTTGGGTAGGGTGGTGGCAGT (ssDNA, PS linkage between nt 11 and 12) [ARC2654] |  |  | 95 |
| TCCCATCGATCTGTGGTGGTTTTGTGGCTTGGGTGGCTGAGGATCGATC (ssDNA) [AMX(399)_G8] | 25.9 | 27.6 |  |
| ACTGCCTAGGTTGGGTAGGGTGGTGGCAGT (ssDNA, PS linkage between nt 20 and 21) [ARC2663] |  |  | 180 |
| TCCCGCTATTCGATCTTCAATTGGGTGGTCAGGGTGGCTGAGGATCGATC (ssDNA) [AMX(399)_F9] | 26 | 25.2 |  |
| ACTGCCTAGGTTGGGTAGGGTGGTGGCAGT (ssDNA, PS linkage between nt 9 and 10) [ARC2652] |  |  | 192 |
| ACTGCCTAGGTTGGGTAGGGTGGTGGCAGT (ssDNA, PS linkage between nt 24 and 25) [ARC2667] |  |  | 459 |
| ACTGCCTAGGTTGGGTAGGGTGGTGGCAGT (ssDNA, PS linkage between nt 19 and 20) [ARC2662] |  |  | 165 |
| ACTGCCTAGGTTGGGTAGGGTGGTGGCAGT (ssDNA, PS linkage between nt 3 and 4) [ARC2646] |  |  | 169 |
| TCCCGACTTTAGATCCGTGTTGGATGGCCTGGGTGGCTGAGGATCGATC (ssDNA) [AMX(399)_H2] |  | 5.49 |  |
| ACTGCCTAGGTTGGGTAGGGTGGTGGCAGT (ssDNA, PS linkage between nt 29 and 30) [ARC2672] |  |  | 141 |
| TCCCGTTCGGTCCGTATACTGGTGGTGGTTGGGTGGCTGAGGATCGATC (ssDNA) [AMX(399)_F4] | 25 | 28.1 |  |
| ACTGCCTAGGTTGGGTAGGGTGGTGGCAGT (ssDNA, PS linkage between nt 5 and 6) [ARC2648] |  |  | 128 |
| TCCCGTGATCTCTGGGGTAACGTCTTGGTGTGGGTGGCTGAGGATCGATC (ssDNA) [AMX(399)_F1] | 19.4 | 16.7 |  |
| TCCCGGTATCGTCATGCTGGTGGAATTGGTTGGGTGGCTGAGGATCGATC (ssDNA) [AMX(399)_G5] | 18.9 | 23.2 |  |
| ACTGCCTAGGTTGGGTAGGGTGGTGGCAGT (ssDNA, PS linkage between nt 4 and 5) [ARC2647] |  |  | 161 |
